What was measured:
GST-SOX10 HMG [1] = biological target: T1, GST-SOX10 HMG (mouse, UniProt Q04888 80-185); test: competition; unlabeled excess against labeled WT SOD3 probe; did not effectively compete; 10 mM HEPES pH 8.0, 5% glycerol, 50 mM NaCl, 5 mM MgCl2, 2 mM DTT, 0.1 mM EDTA, 4 ug BSA, 2 ug poly(dIdC) in 35 ul; 25 min at room temperature; 5% PAGE in 1x TBE; settings: protein: recombinant; tags: N-terminal GST (pGEX-4T-1); blunt
GST-SOX10 HMG [2] = biological target: T1, GST-SOX10 HMG; test: EMSA; specific unlabeled probe abrogates the complex; 10 mM HEPES pH 8.0, 5% glycerol, 50 mM NaCl, 5 mM MgCl2, 2 mM DTT, 0.1 mM EDTA, 4 ug BSA, 2 ug poly(dIdC) in 35 ul; 25 min at room temperature; 5% PAGE in 1x TBE; settings: protein: recombinant; tags: N-terminal GST (pGEX-4T-1); label: 32P end label (probe); 3' overhang 4 nt on strand 1 as printed (20-mer/16-mer)

T1 sequence (Q04888 80-185): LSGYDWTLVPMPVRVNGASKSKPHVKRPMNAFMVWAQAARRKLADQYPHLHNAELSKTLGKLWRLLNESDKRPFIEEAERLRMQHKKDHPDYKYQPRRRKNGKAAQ

| Binder | binding result (GST-SOX10 HMG [1]) | binding result (GST-SOX10 HMG [2]) |
| --- | --- | --- |
| SOD3 mutated probe (MT) (dsDNA) DNA 1: GAAGAGGCAGACTGGTCTCT DNA 2: AGAGACCAGTCTGCCTCTTC | no binding | – |
| SOD3 probe (WT) (dsDNA) DNA 1: GAAGAGGCACAATGGTCTCT DNA 2: ACCATTGTGCCTCTTC | – | binds |

From paper PMC2556353, “Identification of direct regulatory targets of the transcription factor Sox10 based on function and conservation”
